T1: human FAP on HEK293-hFAP cells (human, UniProt Q12884 1-760)
T1 construct: whole, on cells; also called human FAP-expressing cell line
T1 sequence (looked up): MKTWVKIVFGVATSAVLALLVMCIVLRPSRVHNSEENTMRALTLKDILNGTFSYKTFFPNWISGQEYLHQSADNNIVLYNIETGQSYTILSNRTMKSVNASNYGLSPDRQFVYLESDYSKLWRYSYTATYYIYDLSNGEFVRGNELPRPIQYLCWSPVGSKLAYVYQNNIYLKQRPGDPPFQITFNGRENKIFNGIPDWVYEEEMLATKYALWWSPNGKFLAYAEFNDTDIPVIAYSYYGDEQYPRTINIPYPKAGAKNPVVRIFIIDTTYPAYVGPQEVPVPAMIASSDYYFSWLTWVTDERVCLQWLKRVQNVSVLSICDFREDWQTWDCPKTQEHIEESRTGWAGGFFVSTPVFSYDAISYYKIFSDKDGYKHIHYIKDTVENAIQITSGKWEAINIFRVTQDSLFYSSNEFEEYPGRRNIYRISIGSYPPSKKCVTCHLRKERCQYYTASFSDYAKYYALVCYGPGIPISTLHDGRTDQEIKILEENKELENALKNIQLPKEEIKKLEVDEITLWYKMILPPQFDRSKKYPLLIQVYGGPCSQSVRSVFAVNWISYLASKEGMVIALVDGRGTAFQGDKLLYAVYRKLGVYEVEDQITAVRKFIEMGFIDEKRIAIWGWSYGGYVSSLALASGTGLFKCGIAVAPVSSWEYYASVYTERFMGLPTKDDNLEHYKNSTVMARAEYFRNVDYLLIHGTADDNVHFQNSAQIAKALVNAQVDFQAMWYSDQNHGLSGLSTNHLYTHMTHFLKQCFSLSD

T2: recombinant human herpes virus entry mediator (HVEM) (human, UniProt Q92956 39-202)
T2 construct: neither construct is described; also called human HVEM; recombinant human HVEM protein (R&D systems)
T2 sequence (looked up): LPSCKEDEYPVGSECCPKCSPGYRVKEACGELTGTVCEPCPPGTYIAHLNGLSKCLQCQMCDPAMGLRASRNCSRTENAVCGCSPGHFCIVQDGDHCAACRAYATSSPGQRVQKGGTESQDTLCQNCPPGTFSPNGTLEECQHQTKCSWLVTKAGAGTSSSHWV

B1: T3.06 (anti-hu FAP/hu scLIGHT3(195-198), hu IgG1 DANG) (bispecific antibody)
heavy: QVQLVQSGAEVKKPGASVKVSCKTSRYTFTEYTIHWVRQAPGQRLEWIGGINPNNGIPNYNQKFKGRVTITVDTSASTAYMELSSLRSEDTAVYYCARRRIAYGYDEGHAMDYWGQGTLVTVSSASTKGPSVFPLAPSSKSTSGGTAALGCLVKDYFPEPVTVSWNSGALTSGVHTFPAVLQSSGLYSLSSVVTVPSSSLGTQTYICNVNHKPSNTKVDKKVEPKSCDKTHTCPPCPAPELLGGPSVFLFPPKPKDTLMISRTPEVTCVVVAVSHEDPEVKFNWYVDGVEVHNAKTKPREEQYGSTYRVVSVLTVLHQDWLNGKEYKCKVSNKALPAPIEKTISKAKGQPREPQVYTLPPSRDELTKNQVSLWCLVKGFYPSDIAVEWESNGQPENNYKTTPPVLDSDGSFFLYSKLTVDKSRWQQGNVFSCSVMHEALHNHYTQKSLSLSPGK
light: not shown
chain: not shown
notes: Knob-into-hole
B2: T3.15 (anti-hu FAP/hu scLIGHT-LIGHT(L118K, G119E)2, hu IgG1 DANG) (bispecific antibody)
heavy: B1 heavy
light: not shown
chain: not shown
B3: T3.05 (anti-hu FAP/hu scLIGHT3(226-231), hu IgG1 DANG) (bispecific antibody)
heavy: B1 heavy
light: not shown
chain: not shown
notes: Knob-into-hole
B4: T3.16 (anti-hu FAP/hu scLIGHT(226-231)-LTb2, hu IgG1 DANG) (bispecific antibody)
heavy: B1 heavy
light: not shown
chain: not shown
notes: Knob-into-hole
B5: T3.17 (anti-hu FAP/hu scLIGHT(195-198)-LTb2, hu IgG1 DANG) (bispecific antibody)
heavy: B1 heavy
light: not shown
chain: not shown
notes: Knob-into-hole

Key:
[1] = target: T1, human FAP on HEK293-hFAP cells; experiment: flow cytometry on HEK293-hFAP cells, 1 µg protein, anti-human IgG detection
Description: (§1) Specifically, the cell line was prepared by suspending in a FACS buffer solution at 1×10⁵ cells/100 μL, and treated with 1 μg each of T3.10, T3.01, T3.05, T3.06, T3.14, and T3.18. The cells were washed twice with a FACS buffer solution. The cells were stained with an anti-human IgG antibody (Biolegend). The negative control sample was stained only with an anti-human IgG antibody (Biolegend). The expression ratio of the stained cells was measured using BD LSR and analyzed using FlowJo software.

[2] = target: T1, human FAP on HEK293-hFAP cells; experiment: flow cytometry on HEK293-hFAP cells, 1 ug protein per 1x10^5 cells, anti-human IgG detection (axis TMEkine-PE)
Description: as §1

human LTβR on A375 cells = human LTβR on A375 cells (human, UniProt P36941 31-435); experiment: cell-based or functional assay
[3] = target: T2, recombinant human herpes virus entry …; experiment: sandwich ELISA: plate coated with recombinant human HVEM 1 ug/mL, fusion protein from 1 nM in serial dilution, detected with biotinylated recombinant human FAP and streptavidin conjugate, OD 450 nm
Description: Considering that LIGHT of the fusion protein must bind to the herpes virus entry mediator (HVEM) for the action, it was confirmed that T3.01 binds to the recombinant human HVEM, as follows: [0370] (i) The recombinant human HVEM protein (R&D systems) was suspended at 1 μg/mL, dispensed in a 96-well immune plate, and treated for 24 hours. [0371] (ii) The wells were washed with a wash solution, and then blocking was performed for 1 hour with 1% BSA (bovine serum albumin, Sigma) solution. [0372] (iii) The wells were washed with a wash solution, and then T3.01, T3.14, T3.16, T3.17, T3.18 and T3.10, or T3.05, T3.06, T3.04, T3.14 and T3.10 were suspended at 1 nM and diluted by serial dilution. The wells were treated with the diluted T3.01, T3.14, T3.16, T3.17, T3.18 and T3.10, or T3.05, T3.06, T3.04, T3.14 and T3.10 for 2 hours. [0373] (iv) The wells were washed with a wash solution, and then treated with the human recombinant FAP-biotin diluted at 0.5 μg/mL for 2 hours. [0374] (v) The wells were washed with a wash solution, and then treated with streptavidin-RP for 20 minutes. [0375] (vi) The wells were washed with a wash solution, and then treated with a substrate solution for 20 minutes. [0376] (vii) The wells were treated with a stop solution, and the absorbance was measured at 450 nm.

Chain of human LTβR on A375 cells (P36941 31-435): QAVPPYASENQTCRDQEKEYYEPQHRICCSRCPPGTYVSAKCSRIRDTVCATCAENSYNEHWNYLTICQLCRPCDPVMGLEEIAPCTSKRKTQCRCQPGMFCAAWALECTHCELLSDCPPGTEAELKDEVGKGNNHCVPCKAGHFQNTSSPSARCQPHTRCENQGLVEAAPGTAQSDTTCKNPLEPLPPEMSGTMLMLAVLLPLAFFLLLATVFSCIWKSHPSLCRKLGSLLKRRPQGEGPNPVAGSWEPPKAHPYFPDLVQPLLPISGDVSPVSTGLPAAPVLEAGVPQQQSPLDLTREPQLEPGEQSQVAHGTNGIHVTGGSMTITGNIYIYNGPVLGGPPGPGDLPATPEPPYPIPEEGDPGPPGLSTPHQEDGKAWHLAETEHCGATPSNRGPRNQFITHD

| Binder | percent of cells bound [1] [%] | percent of cells in the positive gate [2] [%] | IL-8 secretion of A375 cells, EC50 (FIG. 15a) (human LTβR on A375 cells) [nM] | binding result [3] |
| --- | --- | --- | --- | --- |
| B1 | ≥ 99 | 100 | – | – |
| B2 | – | – | 3.79 | – |
| B3 | ≥ 99 | 99.8 | – | no binding (tested: 1000 pM) |
| B4 | – | – | – | no binding (tested: 1000 pM) |
| B5 | – | – | – | no binding (tested: 1000 pM) |

From US20250368754A1 (KANAPH THERAPEUTICS, published 2025)
